In patent US20150148405A1, “Expression Construct for a Lin28-Resistant Let-7 Precursor MicroRNA” (THE JOHNS HOPKINS UNIVERSITY, priority 2012, published 2015):

What was measured:
Assay type in all cases: cell-based, mouse
[1] = tested on: hippocampal pyramidal neurons; assay: Endogenous P-body numbers by GW182 immunostaining; conditions: 75 min after stimulation; mock 11.36±1.21; p<0.05
Excerpt: For fixed cells, confocal images were acquired in 0.3 μm (dendrites) or 1.7 μm (whole cells for arborization) Z sections on an LSM5 Pascal system (Carl Zeiss) using a 63×, 1.4 NA Plan Apochromat oil immersion objective and 2× optical zoom (dendrites) or using a 25×, 0.80 NA Plan-Neofluor multi-immersion objective and 0.7×-1× optical zoom (for whole cells). GFP was excited at 488 nm and emissions collected at 505-530 nm; mCherry was excited at 543 nm and emissions collected above 560 nm. Laser power and exposure time were adjusted to minimize photobleaching and avoid saturation. All experiments were from a minimum of 3 independent cultures and no more than 3 neurons per dish Z-stacks containing the entire neuron or process of interest were analyzed using Imaris 7.0.0 (Bitplane) and ImageJ software. […] The percent colocalization of P-body components was calculated by […]. The percent of colocalized fluorescence was calculated for each P-body component by first summing the aggregate fluorescence values that co-localized with the other P-body marker in ‘spots’, then dividing this quantity by the value of the total fluorescence intensity within the dendrite for that channel, and multiplying by 100. […]

[2] = tested on: miRNA reporter (CXCR4 shRNA); assay: CXCR4 miRNA-reporter luciferase assay; conditions: BDNF stimulation, Actinomycin-D
Excerpt: The following CXCR4 siRNA/miRNA reporter assay constructs (Addgene) were used: siRNA reporter (PCD FLIP, Plasmid 12567), miRNA reporter (PCD FL4X, 12565), control luciferase reporter (PCD FLOX, 12563), and CXCR4 shRNA (pLKO.1 puro CXCR4 siRNA-2, 12272) (Wang et al., 2006). Let-7 luciferase reporters with wild-type or mutated Let-7 miRNA binding sites were gifts from G. Hannon (Liu et al., 2005b). 3′UTR reporters were constructed by inserting 3′UTRs from GluR1, CaMKIIu or KCC2 downstream of luciferase in pGL3-Control vector (Promega). A Lin28-resistant Let-7 pre-miRNA was generated by mutation of the conserved Lin28 “GGAG” recognition motif to “GtAt” in the terminal loop of pLV-hsa-let-7a-1 (Biosettia). […]
44 hours post-transfection, hippocampal cultures were treated with serum-reduced media (0.5% B27) and Actinomycin-D (0.5 ng/mL) as previously described, followed by BDNF stimulation 100 ng/mL for 4 hours. Cell lysates were collected in 1×lysis buffer (reporter lysis buffer, Promega), and luciferase (Promega) and chemiluminescent β-gal (Roche) reporter assays carried out according to manufacturer instructions using a plate-reading luminometer (Perkin Elmer). […] When required, fold change was calculated by dividing normalized stimulated samples by normalized unstimulated samples.

[3] = tested on: Dicer; assay: Immunoblotting for Dicer; conditions: BDNF-stimulated neurons, Actinomycin-D
Procedure: Primary cultures of mouse hippocampal neurons (DIV 14 15) were incubated in serum-reduced medium (0.5% B27 supplement) for 2 hours, followed by […] Actinomycin-D for 10-20 min. Bath application of BDNF (100 ng/mL) was for designated periods (5 min-2 hours). The cultures were washed 3 times and harvested on ice with lysis buffer (50 mM Hepes, 150 mM NaCl, 10% Glycerol, 1 mM EDTA, 1% Triton-X-100, 0.2% SDS) plus freshly added protease inhibitor cocktail (Roche) and PMSF. Protein concentration was determined by Bradford Assay. If required, lysates were treated with Lambda Protein Phosphatase according to manufacturer's instructions (New England Biolabs […]). Equal amounts of lysate protein were resolved on SDS-PAGE gels, and electrotransferred to PVDF membrane. […]

B1: BDNF: brain-derived neurotrophic factor, a neurotrophin used to stimulate hippocampal neurons (protein, UniProt P23560 19-247, looked up)
Neurotrophic factor BDNF …: APMKEANIRGQGGLAYPGVRTHGTLESVNGPKAGSRGLTSLADTFEHVIEELLDEDQKVRPNEENNKDADLYTSRVMLSSQVPLEPPLLFLLEEYKNYLDAANMSMRVRRHSDPARRGELSVCDSISEWVTAADKKTAVDMSGGTVTVLEKVPVSKGQLKQYFYETKCNPMGYTKEGCRGIDKRHWNSQCRTTQSYVRALTMDSKKRIGWRFIRIDTSCVCTLTIKRGR
endogenous P-body numbers in individual neuronal dendrites, mean±SEM [1]: 15.48±1.26
miRNA-mediated suppression of miRNA reporter by shCXCR4 [2]: greatly enhanced miRNA-mediated suppression
Dicer levels [3]: marked transcription-independent increase in Dicer levels
time of peak Dicer levels after stimulation [3]: 5 to 20 min
